Entries after “also recorded” stand apart in the source; their conditions may differ.
T1: ldLIMP2 (Homo sapiens, UniProt Q14108)
T1 construct: Purified luminal domain LIMP-2 (1d-LIMP2) was custom made (Sino Biological Inc., PRC.); purchased Sino Biological Inc
T1 sequence (Q14108 28-433 limits assumed): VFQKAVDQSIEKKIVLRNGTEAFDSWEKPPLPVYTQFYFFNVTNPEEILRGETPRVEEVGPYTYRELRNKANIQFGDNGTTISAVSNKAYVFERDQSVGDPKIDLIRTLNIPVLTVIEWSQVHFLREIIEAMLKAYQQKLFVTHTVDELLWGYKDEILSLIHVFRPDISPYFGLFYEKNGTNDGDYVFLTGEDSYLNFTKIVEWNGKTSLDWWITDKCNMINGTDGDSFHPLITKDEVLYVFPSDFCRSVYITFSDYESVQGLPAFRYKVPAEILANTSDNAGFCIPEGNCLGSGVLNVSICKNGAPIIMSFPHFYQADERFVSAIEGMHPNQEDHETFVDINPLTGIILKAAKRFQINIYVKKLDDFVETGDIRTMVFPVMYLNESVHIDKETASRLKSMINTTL


Legend:
ldLIMP2 = target: T1, ldLIMP2; test: Immunoprecipitation of alanine substituted GCases (TKD sequence) with ldLIMP2; assay type: binding; settings: GCase:LIMP2 1:1, immunoblot, FIG. 6
From the text: FIG. 6A-6E: Immunoprecipitation of the alanine substituted GCases in the TKD sequence with ldLIMP2. In panels shown in FIG. 6A to FIG. 6D, the lanes 1 through 6 correspond to the band densities indicated by the bars in FIG. 6E. […] The quantitative results are shown in (FIG. 6E) in which 1, 2, 3, and 4 correspond to WT, AAA, AKA, and AKD, respectively.
Immunoprecipitation of GCases with mutations in the TKD sequence: For immunoblots, Gba1 knockout mouse fibroblasts (null/null) were transfected with the GBA1 constructs (WT or mutants) and expressed for 5 days. The GCases from harvested cell lysates were purified using a GCase antibody affinity column (Dynabeads protein G crosslinked (BS3) with rabbit anti-human GCase antibody). The purified GCases were then mixed with LIMP2 (1:1), incubated (30 min.), and applied to another affinity column (Dynabeads protein G crosslinked (BS3) with rabbit anti-LIMP2 antibody). Aliquots of each step (loading, wash and eluent) were collected and analyzed on 12.5% SDS gels. Immunoblots were developed using anti-human GCase antibody and AP conjugated color development kits. Mock experiments with either non-LIMP2 proteins added or no GCases added, were used as control. The quantitations of these immunoprecipitation data were obtained from densitometry measurements of the gels. The no-LIMP-2 bars are the controls for comparison, since GCase was processed through all steps without LIMP-2 to account for any losses of GCase; About 50% of the GCase was lost during processing.

[1] = tested on: Gba1 null/null mouse fibroblasts; test: Immunofluorescence co-localization of expressed GCase constructs (lysosome vs ER/Golgi); assay type: cell-based; settings: for localization of GCase DSPIIV variants to the lysosome (Lamp1 / LIMP-2 co-localization), in words: transient transfection, FIG. 10A
From the text: Immunofluorescence studies (IF): Mouse Gba1 null/null were used for the host cells for all transfection experiments. pCMV-AC-GFP Mammalian cell expression vector was used for expression of various GCases that included the TKD region (amino acids 407, 408 and 409) or the DSPIIV (SEQ ID NO 15) region (amino acids 399-404). Direct-labeled first antibodies were applied for IF detection; including anti-human GCase, -Calreticulin, -calnexin, -LIMP2, and -Lamp1. Lysotracker and ER tracker (Invitrogen) were also used as indicated. Analyses were done with a Zeiss AxioVert 200M with ApoTome. Co-localization analyses to obtain Pearson Indices were conducted using a module in the Axiovision 4.8 software.
Initial studies to localize the targeting peptide were conducted with GCase-GFP fusion constructs that had COOH-terminal deletions of GCase (FIG. 1). The constructs are designated as GCase-XX or XXX where the Xs represent the number of GCase amino acids deleted from the COOH-terminus. These constructs were transfected into and expressed in Gba1 null/null mouse fibroblasts using the CMV promoter (pCMV-AC-GFP or YFP) Immunofluorescence analyses using anti-human GCase IgG (green) and Lysotracker (Red) were used for colocalization of GCase to the lysosome (Red) or GCase (green) and Calreticulin or Calnexin (Red) for colocalization to the ER or Golgi (FIG. 2). […] Since LIMP-2 is the receptor for targeting of GCase to the lysosome, our working hypothesis was that the peptide sequence for binding of GCase to LIMP-2 was located within amino acids 347-422.

Gba1−/− cells = test: Proportion of GCase protein in cells and media; assay type: cell-based, mouse; settings: for % Secreted: ng GCase in media / (ng in media + ng in lysates) × 100
From the text: (§1) FIG. 11A-FIG. 11C: Secretion and retention of GCase with alanine variants in the TDK (FIG. 11A) or DSPIIV (SEQ ID NO 15) (FIG. 11B and FIG. 11C) sequences. FIG. 11A depicts activities in the media of Gba1−/− fibroblasts following transient transfections of each of the specified alanine substituted GCases in the TDK region. […] FIG. 11B depicts in the Left Panel: Activities in the media following transient transfections of various DSPIIV (SEQ ID NO 15) alanine substituted GCases and the % of GCase secreted. The latter was calculated as {ng GCase (in media)/[ng GCase (in media)+ng (GCase in lysates)]}×100 (also see Table 2). […] The transfections alone (Null+lipo) had no effect. […] FIG. 11C deicts in cellular lysate GCase activities from the various alanine substituted GCases in the DSPIIV (SEQ ID NO 15) sequence as indicated. […] The doubly alanine substituted GCase had little intracellular activity, i.e., nearly all the GCase was secreted into the media.

Gba1−/− fibroblasts = test: GCase activity in media and cell lysates after transient transfection (secretion and retention); assay type: cell-based, mouse; settings: for GCase activity in the media / secretion, in words: FIG. 11A, 11B
From the text: as §1
(§2) Enzyme Assays: Cell pellets were homogenized in 0.25% Na-taurocholate and 0.25% Triton X-100. GCase activities were determined fluorometrically with 4 mM 4MU-Glc in 0.2M/0.1M citric-phosphate, pH 5.6 (18, 54)

[2] = CRIM specific activity of GCase variants (activity per cross-reacting immunological material); assay type: biochemical; settings: FIG. 11B right panel
Protocol: as §2
Corresponding effects on the secretion of GCases from the cells containing various mutations in DSPIIVDITDK were found by assessing the activity of GCases in the media and cell lysate (FIG. 11 A-C). […] Using this assessment, the ratio of CRIM specific activities relative to WT (assigned 100%) for AAA, TAD, and AKA were 20%, 32%, and 49%, respectively (FIG. 11A, right panel), or that more GCase protein was required from the respective mutants to achieve the same enzyme activity as the WT. […] For the other mutants this ranged from 22-36%. This compares to ˜0% for the WT or D399E GCases Immunoaffinity anti-GCase column purification of the various GCases from media confirmed the excesses of these mutant GCases and the inability to detect WT or D399E GCases in media (data not shown).

localization of GCase DSPIIV variants to the lysosome (Lamp1 / LIMP-2 co-localization), in words [1]	binding of GCase variant to ldLIMP2, in words (ldLIMP2)	enzyme localized to the lysosome ([1]; TKD sequence variants, FIG. 5)	Molecule	binding of GCase variant to ldLIMP2, in words (ldLIMP2; listed as WT)	localization of GCase DSPIIV variants to the lysosome (Lamp1 / LIMP-2 co-localization), in words ([1]; listed as WT)	Total GCase (Gba1−/− cells; cellular + media, mean ± SD, n = 3)	% Secreted (Gba1−/− cells)	Cellular GCase (Gba1−/− cells; total ng, mean ± SD, n = 3)	Media GCase (Gba1−/− cells; total ng, mean ± SD, n = 3)	Pearson Indices for co-localization to the lysosome, in words ([1]; DSPIIV variants, FIG. 10B)	localization of GCase DSPIIV variants to the lysosome (Lamp1 / LIMP-2 co-localization), in words ([1]; listed as E399)	localization of GCase DSPIIV variants to the lysosome (Lamp1 / LIMP-2 co-localization), in words ([1]; listed as ESPIIV)	GCase activity in cell lysates, in words (Gba1−/− fibroblasts; cell lysates, FIG. 11C)	GCase activity in the media / secretion, in words (Gba1−/− fibroblasts)	GCase activity in the media / secretion, in words (Gba1−/− fibroblasts; listed as E399)	GCase activity in the media / secretion, in words (Gba1−/− fibroblasts; listed as ESPIIV)	CRIM specific activity, in words [2]
–	–	–	Human WT: wild type human GCase (acid β-glucosidase, SEQ ID NO 2) expressed in Gba1−/− cells (protein, listed as Homo sapiens) ARPCIPKSFGYSSVVCVCNATYCDSFDPPTFPALGTFSRYESTRSGRRMELSMGPIQANHTGTGLLLTLQPEQKFQKVKGFGGAMTDAAALNILALSPPAQNLLLKSYFSEEGIGYNIIRVPMASCDFSIRTYTYADTPDDFQLHNFSLPEEDTKLKIPLIHRALQLAQRPVSLLASPWTSPTWLKTNGAVNGKGSLKGQPGDIYHQTWARYFVKFLDAYAEHKLQFWAVTAENEPSAGLLSGYPFQCLGFTPEHQRDFIARDLGPTLANSTHHNVRLLMLDDQRLLLPHWAKVVLTDPEAAKYVHGIAVHWYLDFLAPAKATLGETHRLFPNTMLFASEACVGSKFWEQSVRLGSWDRGMQYSHSIITNLLYHVVGWTDWNLALNPEGGPNWVRNFVDSPIIVDITKDTFYKQPMFYHLGHFSKFIPEGSQRVGLVASQKNDLDAVALMHPDGSAVVVVLNRSSKDVPLTIKDPAVGFLETISPGYSIHTYLWRRQ	nearly complete binding; also recorded: bound similarly	targeted to the lysosomes; also recorded: co-localization of GCase (FITC) with either Lamp 1 (Red) or LIMP-2	23 ± 4 ng	~0%	23 ± 4 ng	0 ng	–	–	–	–	–	–	–	–
targeted to the lysosomes	–	–	D399E: human GCase variant with charge conserved D399E (ESPIIV, SEQ ID NO 20) (protein) ARPCIPKSFGYSSVVCVCNATYCDSFDPPTFPALGTFSRYESTRSGRRMELSMGPIQANHTGTGLLLTLQPEQKFQKVKGFGGAMTDAAALNILALSPPAQNLLLKSYFSEEGIGYNIIRVPMASCDFSIRTYTYADTPDDFQLHNFSLPEEDTKLKIPLIHRALQLAQRPVSLLASPWTSPTWLKTNGAVNGKGSLKGQPGDIYHQTWARYFVKFLDAYAEHKLQFWAVTAENEPSAGLLSGYPFQCLGFTPEHQRDFIARDLGPTLANSTHHNVRLLMLDDQRLLLPHWAKVVLTDPEAAKYVHGIAVHWYLDFLAPAKATLGETHRLFPNTMLFASEACVGSKFWEQSVRLGSWDRGMQYSHSIITNLLYHVVGWTDWNLALNPEGGPNWVRNFVESPIIVDITKDTFYKQPMFYHLGHFSKFIPEGSQRVGLVASQKNDLDAVALMHPDGSAVVVVLNRSSKDVPLTIKDPAVGFLETISPGYSIHTYLWRRQ	–	–	–	~0%	–	–	did not alter the co-localization compared to WT	did not alter the cellular localization or secretion of GCase	co-localization of GCase (FITC) with either Lamp 1 (Red) or LIMP-2	equal intracellular activities	no media activity above background	did not alter the cellular localization or secretion of GCase	did not alter secretion	minor change in CRIM specific activity
–	somewhat less binding	about 50%	AKD: human GCase with TKD (407-409) replaced by AKD, as named in figure legends (protein, UniProt P04062 40-536, looked up, variant T407A) Lysosomal acid …: ARPCIPKSFGYSSVVCVCNATYCDSFDPPTFPALGTFSRYESTRSGRRMELSMGPIQANHTGTGLLLTLQPEQKFQKVKGFGGAMTDAAALNILALSPPAQNLLLKSYFSEEGIGYNIIRVPMASCDFSIRTYTYADTPDDFQLHNFSLPEEDTKLKIPLIHRALQLAQRPVSLLASPWTSPTWLKTNGAVNGKGSLKGQPGDIYHQTWARYFVKFLDAYAEHKLQFWAVTAENEPSAGLLSGYPFQCLGFTPEHQRDFIARDLGPTLANSTHHNVRLLMLDDQRLLLPHWAKVVLTDPEAAKYVHGIAVHWYLDFLAPAKATLGETHRLFPNTMLFASEACVGSKFWEQSVRLGSWDRGMQYSHSIITNLLYHVVGWTDWNLALNPEGGPNWVRNFVDSPIIVDIAKDTFYKQPMFYHLGHFSKFIPEGSQRVGLVASQKNDLDAVALMHPDGSAVVVVLNRSSKDVPLTIKDPAVGFLETISPGYSIHTYLWRRQ	–	–	–	–	–	–	–	–	–	–	greatest increases	–	–	–

— patent publication US9738880B2, “Lysosomal protein targeting sequence and therapeutic applications of same” (Children's Hospital Medical Center, priority 2013, dated 2017)
